This note sets out measurements from the nanobody polyreactivity screen of Harvey et al. (2022).

A short description of the series: yeast display, Sf9 membrane polyspecificity reagent, FACS + sequencing; frameworks hold sequencing errors. The method in brief: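 Polyreactivity labels are assigned by the sorting gate from which each nanobody was recovered. The gates were low and high (top ~1%), set on anti-HA fluorescence for expression and streptavidin fluorescence for reagent binding. Before sorting, galactose-induced (36–48 hours) yeast display cells were stained for 1 hour at 4 °C with 10% biotinylated, detergent-solubilized Sf9 membrane reagent.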
Consider “QVQLVESGGGLVQAGGSLRLSCAASGIFGRNAMGWYRQAPGKERELVAAITGSGGRTYYADSVKGRFTISRDNAKNTVYLQMNSLKPEDTAVSYCAASIPSTHGYAYDYWGQGNQVTVSS”, for which the “polyreactivity (PSR sort gate)” value is reported as “high polyreactivity”.

Regarding “QVQLVESGGGLVQAGGSLRLSCAASGSILDFNAMGWYRQAPGKERELVAAISDSSGSTFYAVSVKGRFTISRDNAKNTVYLLMISLKPEDTAVYYCAARLGFYPYGYTSWYTVYFWGQGTQVTVSS”, the “polyreactivity (PSR sort gate)” value is “low polyreactivity”.

In the case of “QVQLVESGGGLVQAGGSLRLSCSASGFNFRRYAMGLYRQAPGKERELVAVITSGGSTYYADSVKGRFTISRDNAKNTVYLQMNSLKTEDTAVYYCAARYYWYSQEYVLSSWWGDYCGQGTQVTVSS”, the “polyreactivity (PSR sort gate)” value is “high polyreactivity”.

As to “QVQLVESGGGLVQAGGSLRLSCAASGRIFYSYAMGWYRQAPGKERELVAAIDESDGSTYYADSVKGRFTISRDNAKNTVYLQMNSLKPEDTAVYYCAADSLLVLFDYWGQGTQVTVSS”, the “polyreactivity (PSR sort gate)” value is “low polyreactivity”.

“QVQLVESGGGLVQAGGSLRLSCAASGFKYAMGWYRQATGKERELVAAISSGGITSYADSVKGRFTISRDNAKNTVYLQMNSLKPEDTAVYYCNARLRHSQYAYYYWGQGTQVTVSS”: the “polyreactivity (PSR sort gate)” value is reported as “high polyreactivity”.

Turning to “QVHLVESGGGLVQAGGSLRLSCAASGFIFSVYAMGWYRQAPGKERELVAAINRSGSNTYYADSVKGRFTISRDNAKNTVYLQMNSLKPEDTAVYYCATLQGFWYYPPYIKTVQYGYWGQGTQVTVSS”, the “polyreactivity (PSR sort gate)” value is “high polyreactivity”.

In the case of “QVQLGESGGGLVQAGGSLRLSCAASGTIYGYVMGWYRQAPGKERVLVAAISSSGGSTYYADSVKGRFTISRDNAKNTVYLQMNSLKPEDTAVYYCAKGLTYARRYGYWGQRTQVTVSS”, the “polyreactivity (PSR sort gate)” value is given as “high polyreactivity”.

In the case of “QVQLVESGGGLVQAGGSLRISCAASGITFRYYTMGWYRQAPGKERELVAAINYRGGRTYYADSVKGRFTISRDNAKNTVYLQMNSLKPEDTAVYYCNTARVSRLGWSTTSDSWGQGTQVTVSS”, the “polyreactivity (PSR sort gate)” value is “high polyreactivity”.

For “QVQLVESGGGLVQAGGSLRLSCAASGRTFRPYAMGWYRQAPGKERELVAAITTTGRTYYADSVKGRFTISRDNAKNTVYLQMNSLKPEDTAVYDCNAVAYPSPHYWRYYYWGQGTQVTVSS”, the “polyreactivity (PSR sort gate)” value is listed as “high polyreactivity”.

Consider “QVQLVESGGGLVQAGGSLRLSCAASGRIFYRYAMGWYRQAPGKERELVAAITIGGRTNYADSVKGRFTISRDNAKNTVYLQMNSLKPEDTAVYYCAVVLYTRYPPRVRYYYWGQGTQVTVSS”, for which the “polyreactivity (PSR sort gate)” value is “high polyreactivity”.

Turning to “QVQLLETGGGLVQAGGSLRLSCAPSGSIFDSYAMGWYRQAPGKERELVATINTSGGSTYYADSVKGRFTIHDNAKNTVYLQMNSLKPEDTAVYYCNAGRWDYWQNNFGDYGYWGQGTQVTVSS”, the “polyreactivity (PSR sort gate)” value is “low polyreactivity”.

In the case of “QVQLVESGGGLVQAGGSLRLSCAASGSIFWRNAMGWYRQAPGKERALVAAISGNGGTTYYADSVKGRFTISRDYAKNTVYLQINSLKPEDTAVYYCAKVGKTYRTYEDWGQGTQVTVSS”, the “polyreactivity (PSR sort gate)” value is recorded as “high polyreactivity”.

On to “QVQLVESVGGLVQAGGSLRLSCAASGRTFAAYAMGWYRQAPGKERELVAGITSSSVRTYYADSVKGRFTISRDNAKNTVYLQMNSLKPEDTAVYYCNARADGSSSRWRPYSKFYYWGQGTQVTVSS”, for which the “polyreactivity (PSR sort gate)” value was “low polyreactivity”.

Consider “QVQLVESGGGLVQAGGSLRLSCAASGLTFTSNVMGWYRQAPGKERELVAAISSGGSTYYADSVKGRFTISRDNAKNTVYLQMNSLKPEDTAVYYCNTKLWGQYDYWGQGTQVTVSS”, for which the “polyreactivity (PSR sort gate)” value was “low polyreactivity”.

“QVQLVESGGGLVQAGGSLRLSCAASGSIFPVYAMGWYRQAPGKDRELDATITDGGGDTYYADSVMGRFTISRDNAKNTVYLQMNSLKPEDTAVLYCAARSIPEWSAYWYDYWGQGTQVTVSS”: the “polyreactivity (PSR sort gate)” value is on record as “low polyreactivity”.

For the sequence “QFQLVESGGGLVQAGGSLRLSCAASGTFGSYAMGWYRHAPGKERELVASISGTGGDTYYADSVKGRFTISRDNAKNTVYLQMNSLKPEDTAVYYCAARWSRYWYLGSWLYDYWGQGSQVTVSS”, the “polyreactivity (PSR sort gate)” value is “high polyreactivity”.

Turning to “QVQHVESGGGLDQAGGSLRLRCAAYGFTFSFYAMGWYRQEPGKERELVAAISYSGGITYYADSVKGRFTISRDNAKNTVYLQMNSLKPEDTAVYYCAAVPYYSKGSSLYNSGNNYWGQGTQVTVSS”, the “polyreactivity (PSR sort gate)” value is listed as “low polyreactivity”.

Regarding “QVQLVESGGGLVQAGGSLSLSCAASGSTFVYNAMGWYRKAPGKERELVAAISSGGSTNYADSVKGRFTISRDNAKNTVYFQMKSLKPEDNRSEYSRYVVYDYWGQGTQVTVSS”, the “polyreactivity (PSR sort gate)” value is given as “low polyreactivity”.

Consider “QVQLVESGGGLLQAGGSLRISCAASGRIFYAKAMGRYRQAPGKERELVAGISSGGITNYADSVKGRFTISRDNAKNTVYLQMNSLKPEDTAVYYCAVESWNRWRNRNDYWGQGTQVSVSS”, for which the “polyreactivity (PSR sort gate)” value is “low polyreactivity”.

“QVQLVESGGGLVQAGGSLRLSCAASGFIFGRYAMGWYRPAPGKERELVAAITASGGRTYYADSVKGRFTISRDNAKNTVYIQMNSLKPEDTAVYYCNTPSLWSGEDYWGQGTQVTVSS”: the “polyreactivity (PSR sort gate)” value was “low polyreactivity”.

As for “QVQLVESGGGLVQAGGTLRISCAPSGRIFNTNAMRWYRQAPGKERELVAGITDSGDSTYYADSVKGRFTISRDNAKNTVYLQMISLKPEDTAVYYCATDPASPYIYDYWGQGTQVTVSS”, the “polyreactivity (PSR sort gate)” value is “low polyreactivity”.

As for “QVQLVESGGGLVQAGGSLRLSCAASGSTYGGYAMGWYRQAPGKETELVAAISRSGSSTYYADSVKGRFTISRDNAKNTVYLQMNSLKPEDTAVYYCAKRRPALRWIYYYWGQGTQVTVSS”, the “polyreactivity (PSR sort gate)” value was “high polyreactivity”.

With “QVQLVESGGGLVQAGGSLRLSCAASGRTFRINAMGWYRQAPGKERELVAAITYRGANTYYADSVKGRFTISRDNAKNTVYLQMNSLKPEDTAVYYCAAEYAYHHVGFGYWGQGTQVTVSS”, the “polyreactivity (PSR sort gate)” value is listed as “low polyreactivity”.

Regarding “QVQLVESGGGLVPAGGSLRLSCAASGLTIYHYAMGWYRQAPGKERELVAAISYSGGSTYYADSVKGRFTISRDNAKNTVYLQMNSLKPEDTAVYYCAAYARHYGTSSLRYDYWGQGTQVTVSS”, the “polyreactivity (PSR sort gate)” value is recorded as “high polyreactivity”.

Consider “QVQLVESGGGLVQAGGSLRLSCAASGRIFYHYAMGWYRQAPGKERELVAVIRSTGSTNYADSVKGRFTISRDNAKNTVYLQMNSLKPEDTAVYYCAVRRATYSYWYFNGGYWGQGTQVTVSS”, for which the “polyreactivity (PSR sort gate)” value is “high polyreactivity”.

In the case of “QGQLVESGGGLVQAGGSLRLSCAASGFTFRGYAMGWYRQAPGKERELVATITSGGDTNDADSVKGRFTISRDNAKKTVYLQMNSLKPEDTAVYYCAAHDWEFVEEAGPVPWTPYDYWGQGTQVTVSS”, the “polyreactivity (PSR sort gate)” value is reported as “low polyreactivity”.

Take “QVQLVESGGGLVQAGGSLRLSCAASGFIFASYAMGWYRQAPGKERELVAAISSRGGRTYYADSVKGRFTISRDNAKNTVSLQMNSLKPEDTAVYYCAAENYWLAWYKGYDYCGQGTQVTVSS”: the “polyreactivity (PSR sort gate)” value was “high polyreactivity”.

For the sequence “QVQLVESGGGLVQAGGSLRLSCAASGSTFNQNAMGWYRQAPGKERELVARITSGGSTYYADSVKGRFTISRDNAKNTVYLQMNSLKPEDTAVYYCAARANPYVLKYYYWGQGTQVTVSS”, the “polyreactivity (PSR sort gate)” value is on record as “high polyreactivity”.

For the sequence “QLQLVESGGGLVQAGGSLRLSCAASGFIFYLYAMGWYRQAPGKDRELVAAISWSGGITYYADSVKGRFTISRDNAKNTVYLQMNSLKPEDTAVNYCNAVGASASDGDSWGQGTQVTVSS”, the “polyreactivity (PSR sort gate)” value is reported as “high polyreactivity”.

With “QVQLGESRGGLVQAGGSLRLSCAASGRTFTGYAMGWYRQAPGKERELVAAITVSSGRTYYADSVKGRFTISRDNAKNTVYLQMNSLKPEDTAVYYCAKRFRSTHLWKFGGYDYWGQGTQVTVSS”, the “polyreactivity (PSR sort gate)” value is “high polyreactivity”.
